T1: EsCas13d, nuclease-dead (Eubacterium siraeum, UniProt B0MS50, R295A;H300A;R849A;H854A)
T1 sequence: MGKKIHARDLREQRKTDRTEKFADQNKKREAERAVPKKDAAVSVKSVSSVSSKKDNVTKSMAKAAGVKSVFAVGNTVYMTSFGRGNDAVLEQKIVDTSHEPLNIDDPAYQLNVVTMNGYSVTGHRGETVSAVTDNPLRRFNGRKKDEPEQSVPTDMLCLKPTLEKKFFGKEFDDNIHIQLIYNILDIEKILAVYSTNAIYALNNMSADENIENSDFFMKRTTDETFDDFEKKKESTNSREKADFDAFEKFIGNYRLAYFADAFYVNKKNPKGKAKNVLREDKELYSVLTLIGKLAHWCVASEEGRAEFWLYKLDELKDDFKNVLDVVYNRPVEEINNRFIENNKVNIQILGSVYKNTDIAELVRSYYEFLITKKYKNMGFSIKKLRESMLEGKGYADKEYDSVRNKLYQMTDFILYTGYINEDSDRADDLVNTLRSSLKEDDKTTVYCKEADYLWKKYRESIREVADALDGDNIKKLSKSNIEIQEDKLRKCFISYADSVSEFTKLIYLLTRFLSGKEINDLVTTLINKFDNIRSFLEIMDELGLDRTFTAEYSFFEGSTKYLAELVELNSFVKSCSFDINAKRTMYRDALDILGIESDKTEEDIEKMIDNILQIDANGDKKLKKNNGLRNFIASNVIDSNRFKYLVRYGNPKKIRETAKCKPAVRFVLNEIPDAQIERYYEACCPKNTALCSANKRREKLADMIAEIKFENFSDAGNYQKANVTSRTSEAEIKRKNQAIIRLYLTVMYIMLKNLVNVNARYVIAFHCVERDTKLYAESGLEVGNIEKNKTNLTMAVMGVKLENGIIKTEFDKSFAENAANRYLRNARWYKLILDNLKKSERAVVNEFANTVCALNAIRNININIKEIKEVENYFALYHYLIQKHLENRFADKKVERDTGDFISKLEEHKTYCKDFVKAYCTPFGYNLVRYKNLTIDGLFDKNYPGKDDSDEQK


The binders below were run against T1, EsCas13d, nuclease-dead (assay: crRNA (strand 1, pre-loaded); Mg2+; 40 mM Tris-HCl pH 7.5, 150 mM NaCl, 6 mM MgCl2, 1 mM DTT, 0.1% Tween-20, 0.2 mg/ml BSA; 25 C; 10 min per concentration, then washed). Conditions: tags: His6-TwinStrep-SUMO cleaved; N-terminal SNAP kept (SNAP-Surface 488); label: 3' end held by stalled T7 RNA polymerase.

Row | Binder | Kd
1 | target 2 MT 5'PFS UAC 3'PFS ACG (mixed) RNA 1: CACCCGUGCAAAAUUGCAGGGGUCUAAAACCUUCUCCAAAUUGUUUCAUCCU RNA 2: GGGAAUGGAUCCACAUCUACGAAUUCUACAGGAUGAAACAAUUUGGAGAAGACGAGAUCGGAAGAGCACACGU | 5.6 ± 1.3 nM
2 | target 2 MT 5'PFS UAC 3'PFS ACA (mixed) RNA 1: CACCCGUGCAAAAUUGCAGGGGUCUAAAACCUUCUCCAAAUUGUUUCAUCCU RNA 2: GGGAAUGGAUCCACAUCUACGAAUUCUACAGGAUGAAACAAUUUGGAGAAGACAAGAUCGGAAGAGCACACGU | 4.9 ± 1.2 nM
3 | target 1 insA 3' of 12,insC 3' of 3 (mixed) RNA 1: CACCCGUGCAAAAAUGCAGGGGUCUAAAACUGAGCGGAUAACCUCUCUAUGG RNA 2: GGGAAUGGAUCCACAUCUACGAAUUCGUACCAUAGAGAGGAUUAUCCGCUCCACCGAGAUCGGAAGAGCACACGU | 26.6 ± 3 nM
4 | target 2 MT 5'PFS UAC 3'PFS ACC (mixed) RNA 1: CACCCGUGCAAAAUUGCAGGGGUCUAAAACCUUCUCCAAAUUGUUUCAUCCU RNA 2: GGGAAUGGAUCCACAUCUACGAAUUCUACAGGAUGAAACAAUUUGGAGAAGACCAGAUCGGAAGAGCACACGU | 9.8 ± 2.1 nM
5 | target 2 MT 5'PFS GCG 3'PFS CCG (mixed) RNA 1: CACCCGUGCAAAAUUGCAGGGGUCUAAAACCUUCUCCAAAUUGUUUCAUCCU RNA 2: GGGAAUGGAUCCACAUCUACGAAUUCGCGAGGAUGAAACAAUUUGGAGAAGCCGAGAUCGGAAGAGCACACGU | 12.2 ± 1 nM
6 | target 2 MT 5'PFS AAC 3'PFS AAU (mixed) RNA 1: CACCCGUGCAAAAUUGCAGGGGUCUAAAACCUUCUCCAAAUUGUUUCAUCCU RNA 2: GGGAAUGGAUCCACAUCUACGAAUUCAACAGGAUGAAACAAUUUGGAGAAGAAUAGAUCGGAAGAGCACACGU | 6.1 ± 1.5 nM
7 | target 2 MT 5'PFS AAU 3'PFS AGU (mixed) RNA 1: CACCCGUGCAAAAUUGCAGGGGUCUAAAACCUUCUCCAAAUUGUUUCAUCCU RNA 2: GGGAAUGGAUCCACAUCUACGAAUUCAAUAGGAUGAAACAAUUUGGAGAAGAGUAGAUCGGAAGAGCACACGU | 4.9 ± 0.5 nM
8 | target 2 MT 5'PFS ACA 3'PFS UGU (mixed) RNA 1: CACCCGUGCAAAAUUGCAGGGGUCUAAAACCUUCUCCAAAUUGUUUCAUCCU RNA 2: GGGAAUGGAUCCACAUCUACGAAUUCACAAGGAUGAAACAAUUUGGAGAAGUGUAGAUCGGAAGAGCACACGU | 9.6 ± 2.5 nM
9 | target 2 MT 5'PFS AAG 3'PFS UCG (mixed) RNA 1: CACCCGUGCAAAAUUGCAGGGGUCUAAAACCUUCUCCAAAUUGUUUCAUCCU RNA 2: GGGAAUGGAUCCACAUCUACGAAUUCAAGAGGAUGAAACAAUUUGGAGAAGUCGAGAUCGGAAGAGCACACGU | 4.4 ± 0.7 nM
10 | target 2 MT 5'PFS ACA 3'PFS UGA (mixed) RNA 1: CACCCGUGCAAAAUUGCAGGGGUCUAAAACCUUCUCCAAAUUGUUUCAUCCU RNA 2: GGGAAUGGAUCCACAUCUACGAAUUCACAAGGAUGAAACAAUUUGGAGAAGUGAAGAUCGGAAGAGCACACGU | 7 ± 1.5 nM
11 | target 2 MT 5'PFS AAU 3'PFS AGA (mixed) RNA 1: CACCCGUGCAAAAUUGCAGGGGUCUAAAACCUUCUCCAAAUUGUUUCAUCCU RNA 2: GGGAAUGGAUCCACAUCUACGAAUUCAAUAGGAUGAAACAAUUUGGAGAAGAGAAGAUCGGAAGAGCACACGU | 3.3 ± 0.5 nM
12 | target 2 MT 5'PFS CAA 3'PFS AUC (mixed) RNA 1: CACCCGUGCAAAAUUGCAGGGGUCUAAAACCUUCUCCAAAUUGUUUCAUCCU RNA 2: GGGAAUGGAUCCACAUCUACGAAUUCCAAAGGAUGAAACAAUUUGGAGAAGAUCAGAUCGGAAGAGCACACGU | 2.4 ± 1.1 nM
13 | target 2 MT 5'PFS CAA 3'PFS AUA (mixed) RNA 1: CACCCGUGCAAAAUUGCAGGGGUCUAAAACCUUCUCCAAAUUGUUUCAUCCU RNA 2: GGGAAUGGAUCCACAUCUACGAAUUCCAAAGGAUGAAACAAUUUGGAGAAGAUAAGAUCGGAAGAGCACACGU | 5.5 ± 1.8 nM
14 | target 1 C2G,G15C (mixed) RNA 1: CACCCGUGCAAAAAUGCAGGGGUCUAAAACUGAGCGGAUAACCUCUCUAUGG RNA 2: GGGAAUGGAUCCACAUCUACGAAUUCGUACCAUAGACAGGUUAUCCGCUGACCGAGAUCGGAAGAGCACACGU | 35.8 ± 3.1 nM
15 | target 2 MT 5'PFS CUC 3'PFS UCA (mixed) RNA 1: CACCCGUGCAAAAUUGCAGGGGUCUAAAACCUUCUCCAAAUUGUUUCAUCCU RNA 2: GGGAAUGGAUCCACAUCUACGAAUUCCUCAGGAUGAAACAAUUUGGAGAAGUCAAGAUCGGAAGAGCACACGU | 3.3 ± 0.5 nM
16 | target 2 MT 5'PFS CUC 3'PFS UCC (mixed) RNA 1: CACCCGUGCAAAAUUGCAGGGGUCUAAAACCUUCUCCAAAUUGUUUCAUCCU RNA 2: GGGAAUGGAUCCACAUCUACGAAUUCCUCAGGAUGAAACAAUUUGGAGAAGUCCAGAUCGGAAGAGCACACGU | 5.3 ± 0.9 nM
17 | target 2 MT 5'PFS CGG 3'PFS UCA (mixed) RNA 1: CACCCGUGCAAAAUUGCAGGGGUCUAAAACCUUCUCCAAAUUGUUUCAUCCU RNA 2: GGGAAUGGAUCCACAUCUACGAAUUCCGGAGGAUGAAACAAUUUGGAGAAGUCAAGAUCGGAAGAGCACACGU | 11 ± 5 nM
18 | target 2 MT 5'PFS CUC 3'PFS UCU (mixed) RNA 1: CACCCGUGCAAAAUUGCAGGGGUCUAAAACCUUCUCCAAAUUGUUUCAUCCU RNA 2: GGGAAUGGAUCCACAUCUACGAAUUCCUCAGGAUGAAACAAUUUGGAGAAGUCUAGAUCGGAAGAGCACACGU | 5 ± 0.6 nM
19 | target 2 MT 5'PFS AGA 3'PFS CGG (mixed) RNA 1: CACCCGUGCAAAAUUGCAGGGGUCUAAAACCUUCUCCAAAUUGUUUCAUCCU RNA 2: GGGAAUGGAUCCACAUCUACGAAUUCAGAAGGAUGAAACAAUUUGGAGAAGCGGAGAUCGGAAGAGCACACGU | 5.2 ± 0.6 nM
20 | target 2 MT 5'PFS AGA 3'PFS CGA (mixed) RNA 1: CACCCGUGCAAAAUUGCAGGGGUCUAAAACCUUCUCCAAAUUGUUUCAUCCU RNA 2: GGGAAUGGAUCCACAUCUACGAAUUCAGAAGGAUGAAACAAUUUGGAGAAGCGAAGAUCGGAAGAGCACACGU | 5.5 ± 0.8 nM
21 | target 2 MT 5'PFS GUA 3'PFS CAU (mixed) RNA 1: CACCCGUGCAAAAUUGCAGGGGUCUAAAACCUUCUCCAAAUUGUUUCAUCCU RNA 2: GGGAAUGGAUCCACAUCUACGAAUUCGUAAGGAUGAAACAAUUUGGAGAAGCAUAGAUCGGAAGAGCACACGU | 6.3 ± 0.5 nM
22 | target 2 MT 5'PFS AGU 3'PFS CGU (mixed) RNA 1: CACCCGUGCAAAAUUGCAGGGGUCUAAAACCUUCUCCAAAUUGUUUCAUCCU RNA 2: GGGAAUGGAUCCACAUCUACGAAUUCAGUAGGAUGAAACAAUUUGGAGAAGCGUAGAUCGGAAGAGCACACGU | 13.9 ± 2.3 nM
23 | target 2 MT 5'PFS AGC 3'PFS AAU (mixed) RNA 1: CACCCGUGCAAAAUUGCAGGGGUCUAAAACCUUCUCCAAAUUGUUUCAUCCU RNA 2: GGGAAUGGAUCCACAUCUACGAAUUCAGCAGGAUGAAACAAUUUGGAGAAGAAUAGAUCGGAAGAGCACACGU | 7.1 ± 1.4 nM
24 | target 2 MT 5'PFS AGC 3'PFS UGU (mixed) RNA 1: CACCCGUGCAAAAUUGCAGGGGUCUAAAACCUUCUCCAAAUUGUUUCAUCCU RNA 2: GGGAAUGGAUCCACAUCUACGAAUUCAGCAGGAUGAAACAAUUUGGAGAAGUGUAGAUCGGAAGAGCACACGU | 12.7 ± 1.8 nM
25 | target 1 A1U,A14G (mixed) RNA 1: CACCCGUGCAAAAAUGCAGGGGUCUAAAACUGAGCGGAUAACCUCUCUAUGG RNA 2: GGGAAUGGAUCCACAUCUACGAAUUCGUACCAUAGAGGGGUUAUCCGCUCUCCGAGAUCGGAAGAGCACACGU | 17 ± 1.3 nM
26 | target 2 MT 5'PFS GUU 3'PFS AAU (mixed) RNA 1: CACCCGUGCAAAAUUGCAGGGGUCUAAAACCUUCUCCAAAUUGUUUCAUCCU RNA 2: GGGAAUGGAUCCACAUCUACGAAUUCGUUAGGAUGAAACAAUUUGGAGAAGAAUAGAUCGGAAGAGCACACGU | 7.5 ± 0.6 nM
27 | target 2 MT 5'PFS AGC 3'PFS AAC (mixed) RNA 1: CACCCGUGCAAAAUUGCAGGGGUCUAAAACCUUCUCCAAAUUGUUUCAUCCU RNA 2: GGGAAUGGAUCCACAUCUACGAAUUCAGCAGGAUGAAACAAUUUGGAGAAGAACAGAUCGGAAGAGCACACGU | 13 ± 4 nM
28 | target 2 MT 5'PFS AGU 3'PFS CGC (mixed) RNA 1: CACCCGUGCAAAAUUGCAGGGGUCUAAAACCUUCUCCAAAUUGUUUCAUCCU RNA 2: GGGAAUGGAUCCACAUCUACGAAUUCAGUAGGAUGAAACAAUUUGGAGAAGCGCAGAUCGGAAGAGCACACGU | 14.6 ± 1.9 nM

Source: publication PMC10786891, “Massively parallel profiling of RNA-targeting CRISPR-Cas13d”
